The nanobody polyreactivity screen of Harvey et al. (2022)

assay: yeast display, Sf9 membrane polyspecificity reagent, FACS + sequencing; frameworks hold sequencing errors
In short: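 A synthetic nanobody library was expressed on Saccharomyces cerevisiae BJ5465 by galactose induction for 36–48 hours. The library was stained for 1 hour at 4 °C with 10% biotinylated, detergent-solubilized Sf9 membrane reagent and enriched with streptavidin microbeads before FACS. Low and high (top ~1%) gates were set on anti-HA fluorescence for expression and streptavidin fluorescence for reagent binding, and each polyreactivity label reflects the gate of origin.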

Sequence | polyreactivity (PSR sort gate)
QVQLVESGGGLVQAGGSLRLSCAASGFTLDVYVMGWYRPAPGKERELVAAIRDSDDDTSYADSVKGRFTISRDNAKNTVYLQMNSLKPEDTAVYYCAVDYPTQPWGYYLLMDYWGQGTQVTVSS | low polyreactivity
QVQLVESGGGLVQAGGSLRLSCAASGFTLEDYTMGWYRQAPGKERELVARITSGGSTNYADSVKGRFTISRDNAKNTVYLQMKSLKPEDTAVYYCNARYAWINMDYWGQGTQVTVSS | low polyreactivity
QVQLVESGGGLVQAGGSLRLSCAASGFTLFTNAMGWYRQAPGKERELLARISLGGSTKYADSVKGRFTISRDNAKNTVYVQMNSLKPEDTAVYYCATGYYGYRYGYWGQATQVTVSS | high polyreactivity
QVQLVESGGGLVQAGGSLRLSCAASGFTLFVYTMGWYRQAPGKERELVAAISSGDSTYYADSVKGRFTISRDNAKNTVYLQMNSLKPEDTAVYYCAAEWSGEAAWQVGAEDDYWGQGTQVTVSS | low polyreactivity
QVQLVESGGGLVQAGGSLRLSCAASGFTLFYNAMGWYRQAPGKERELVAAITARGGGTYYADSVKGRFTISRDNAKNTVYLQMNSLKPEDTAVYYCNAGQNQRVDRTDPYDYWGQGTQVTVSS | low polyreactivity
QVQLVESGGGLVQAGGSLRLSCAASGFTLGFNAMGWYRQAPGKERELVAAITIGGTTYYADSVKGRFTISRDNAKNTVYLQMNSLKPEDTAVYYCAAARFLWFYVYTTRVQRYGYWGQGTQVTVSS | low polyreactivity
QVQLVESGGGLVQAGGSLRLSCAASGFTLGGNAMGWYRQAPGKERELVAAITFSGGSTYYADSVKGRFTISRDNAKNIVYLQMNSLKPEDTAVYYCAKTHGYYYYYTYDYWGQGTQVTVSS | low polyreactivity
QVQLVESGGGLVQAGGSLRLSCAASGFTLGWYAKGWYRQAPGKERELVASINWDGGSTYYADSVKVRFTISRDNAKNTVYLPMNSLKAEDTAVDYWAAPPGGGGGIGYDSWGQGTQVTVSS | high polyreactivity
QVQLVESGGGLVQAGGSLRLSCAASGFTLGWYVMGWYRQAPGKERELVAGISWSGGNTYYADSVKGRFTISRDNAKNTVYLQMHSLKPEDTAVYYCNADRTYPDYDYWGQGTQVTVSS | low polyreactivity
QVQLVESGGGLVQAGGSLRLSCAASGFTLGYYTMGWYRQAPGKERELVAAIRSNGGSTYYADSVKGRFTISRDNAKNTVYLQMNSLKPEDTAVYYCAADHAYFLTHSSYLFYYWGQGTQVTVSS | high polyreactivity
QVQLVESGGGLVQAGGSLRLSCAASGFTLHSYAMGWYRQAPGKERELVAAITTGGSTYYADSVKGRFTISRDNAKNTVYLQMNSLKPEDTAVYYCAAEDPGPYGGYDYWGQGTQVTVSS | low polyreactivity
QVQLVESGGGLVQAGGSLRLSCAASGFTLLGYAMGWYRQAPGKERELVAAISRGGNTYYADSVKGRFTISRDNAKNTVYLQMNSLKPEDTAVYNCAAQTYSTGYVTRFNYWGQGTQVTVSS | high polyreactivity
QVQLVESGGGLVQAGGSLRLSCAASGFTLLPNALGWYRQAPGKERELVAAITASGGRTYYADSVKGRFSISRDNAKNTVYLLMKSLKPVDTAVYDCTAGVYYYTPYTRMDYWGQGTQVTVAS | low polyreactivity
QVQLVESGGGLVQAGGSLRLSCAASGFTLLTYVMGWYIQAPGKERELVAAISKSGSRTYYADSVKGRFTISRDNAKNTVYLQMNSLKPEDTAVYYCAADTSAYRYDYWGQGTQVTVSS | high polyreactivity
QVQLVESGGGLVQAGGSLRLSCAASGFTLLTYVMGWYRQAPGKERELVAAITSSGGRTYYADSVKGRFTISRDNAKNTVYLQMNSLKPEDTAVYYCAAVGWGSSYRARYGYWGQGTQVTVSS | high polyreactivity
QVQLVESGGGLVQAGGSLRLSCAASGFTLPLYAMGWYRQAPGKERELVATISSGGTTYYADSVKGRFTISRDNAKNTVYLQMNSLKPEDTAVYYCNTLRQLGRPFYYWGQGTQVTVSS | high polyreactivity
QVQLVESGGGLVQAGGSLRLSCAASGFTLQPYAMGWYRQAPGKERELVAAISSRGGRTYYADSVKGRFTISRDNAKNTVYLQMNSLKPEDTAVYYCAATGGYVYPRSRLYYYWGQGNQVTVSS | high polyreactivity
